Assay results: publication PMC7072198, “An Epitope on EGFR Loading Catastrophic Internalization Serve as a Novel Oncotarget for Hepatocellular Carcinoma Therapy” (Cancers, 2020)

Molecular target: T1, EGFR extracellular domain (ECD), wild type (human, UniProt P00533 25-645)
T1 construct: Epidermal growth factor receptor, human, extracellular domain; The Biacore legend and methods say only 'recombinant human EGFR' / 'EGFR protein'; also called EGFR ECD; EGFR ectodomain
Assay: ITC; MicroCal VP-ITC; nineteen 3 μL aliquots of 400 μM rLZ-8 injected into 20 μM EGFR ectodomain; single site binding model
Settings: both partners purified

stoichiometry N: 2 rLZ-8 per EGFR ECD
B1: recombinant Lingzhi-8 (rLZ-8), wild type (natural protein, Ganoderma lucidum, UniProt P14945 1-111, looked up)
chain: MSDTALIFRLAWDVKKLSFDYTPNWGRGNPNNFIDTVTFPKVLTDKAYTYRVAVSGRNLGVKPSYAVESDGSQKVNFLEYNSGYGIADTNTIQVFVVDPDTNNDFIIAQWN
notes: Lingzhi-8 (LZ-8) from Ganoderma lucidum, codon-optimised synthetic gene; Fluorescently labelled (red/green) in the cell experiments; also called rLZ-8^wt; source: Pichia pastoris X33 (pGAPZα A vector), culture supernatant, purified
